Measurements: paper PMC11746154

B1: Gal4AD-Spo11 [S. cerevisiae] / Rec104-LexA [S. cerevisiae] (parent)
chain 1: MALEGLRKKYKTRQELVKALTPKRRSIHLNSNGHSNGTPCSNADVLAHIKHFLSLAANSLEQHQQPISIVFQNKKKKGDTSSPDIHTTLDFPLNGPHLCTHQFKLKRCAILLNLLKVVMEKLPLGKNTTVRDIFYSNVELFQRQANVVQWLDVIRFNFKLSPRKSLNIIPAQKGLVYSPFPIDIYDNILTCENEPKMQKQTIFPGKPCLIPFFQDDAVIKLGTTSMCNIVIVEKEAVFTKLVNNYHKLSTNTMLITGKGFPDFLTRLFLKKLEQYCSKLISDCSIFTDADPYGISIALNYTHSNERNAYICTMANYKGIRITQVLAQNNEVHNKSIQLLSLNQRDYSLAKNLIASLTANSWDIATSPLKNVIIECQREIFFQKKAEMNEIDARIFEYK
chain 2: MSIEEEDTNKITCTQDFLHQYFVTERVSIQFGLNNKTVKRINKDEFDKAVNCIMSWTNYPKPGLKRTASTYLLSNSFKKSATVSLPFILGDPVCMPKRVESNNNDTCLLYSDTLYDDPLIQRNDQAGDEIEDEFSFTLLRSEVNEIRPISSSSTAQILQSDYSALMYERQASNGSIFQFSSP
B2: LexA-Rec102 [S. cerevisiae] / Gal4AD-Spo11 [S. cerevisiae] (parent)
chain 1: B1 chain 1
chain 2: MARDITFLTVFLESCGAVNNDEAGKLLSAWTSTVRIEGPESTDSNSLYIPLLPPGMLKIKLNFKMNDRLVTEEQELFTKLREIVGSSIRFWEEQLFYQVQDVSTIENHVILSLKCTILTDAQISTFISKPRELHTHAKGYPEIYYLSELSTTVNFFSKEGNYVEISQVIPHFNEYFSSLIVSQLEFEYPMVFSMISRLRLKWQQSSLAPISYALTSNSVLLPIMLNMIAQDKSSTTAYQILCRRRGPPIQNFQIFSLPAVTYNK

Variants of: B1
Experiment: Y2H β-galactosidase assay
Conditions: with Rec104-LexA [S. cerevisiae]; parent: 1; read off a plot

| response (normalized β-gal units) | Variant |
| --- | --- |
| 0.72 | chain 1 K8A |
| 0.85 | chain 1 R7A |
| 0.24 | chain 1 R7D |

Same assay, conditions: with Gal4AD-Spo11 [S. cerevisiae]; parent: 1; read off a plot

| response (normalized β-gal units) | Variant |
| --- | --- |
| 0.02 | chain 2 Y21A |
| 0.75 | chain 2 Q20A |
| 0.93 | chain 2 F22A |

The next lines start with the variant.

| Variant | response (normalized β-gal units) |
| --- | --- |
| chain 2 D16A | 1.1 |
| chain 2 D16R | 0.53 |

Variants of: B2
Experiment: Y2H quantitative β-galactosidase assay
Conditions: with Gal4AD-Spo11 [S. cerevisiae]; parent: 1; read off a plot

| response (normalized β-gal units) | Variant |
| --- | --- |
| 0.12 | chain 2 S233A |
| 0.2 | chain 2 I195A |
| 0.02 | chain 2 R199A |
| 0.9 | chain 2 I249A |
| 0.15 | chain 2 L198A |
| 2 | chain 2 L207A |
| 0.1 | chain 2 W202A |
| 0.27 | chain 2 Q239A |

Same assay, conditions: with LexA-Rec102 [S. cerevisiae]; parent: 1; read off a plot

| response (normalized β-gal units) | Variant |
| --- | --- |
| 0.35 | chain 1 F103A |
| 0.3 | chain 1 L16A |
| 0.5 | chain 1 V17A |
| 1.2 | chain 1 Q102A |
| 0.62 | chain 1 L60A |
| 0.07 | chain 1 N94A |
| 0.17 | chain 1 G95A |
| 0.27 | chain 1 L3A |
| 0.15 | chain 1 L93A |
| 0.05 | chain 1 L105A |
| 0.35 | chain 1 L20A |
| 0.3 | chain 1 F91A |
| 0.03 | chain 1 L112A |
